In US20250073302A1, “CYCLIC PEPTIDES AS PROTEASOME STIMULATORS” (Purdue Research Foundation, priority 2023, published 2025):
Non-standard residues stand in square brackets, D forms with d. dBpa = N[C@H](Cc1ccc(C(=O)c2ccccc2)cc1)C(=O)O; dPhe(3,4-F2) = N[C@H](Cc1ccc(F)c(F)c1)C(=O)O; dPhe(3-F) = N[C@H](Cc1cccc(F)c1)C(=O)O; dPhe(4-F) = N[C@H](Cc1ccc(F)cc1)C(=O)O

The substances below were run against T1, 20S CP (assay: TAS-1 biochemical assay (20S CP stimulation)). Conditions: TAS-1 assay.
T1 construct: purchased South Bay
Procedure: Each compound was initially tested at 10 μM. Each well contained […] of 11.4 μM TAS-1 solution in Tris HCl (50 mM, pH 7.4) along with 5 nM of 20 sCP (South Bay). 1 μL of the test compound, control, or DMSO was added to the desired well to obtain a final DMSO concentration of 2%, with the total volume being 50 μL. Compounds were tested in three replicates that each had technical triplicates. The fluorescence was recorded using a SynergyNeo 2, where the excitation and emission was set to 335 nm and 493 nm. The plate reader was heated to 37° C. The fluorescence was recorded every 90 seconds over a 1-hour period. A simple linear regression was performed on the data plotted against time to obtain the rate of hydrolysis of TAS-1 by the 20S CP. The data was then normalized against DMSO to get the percent stimulation.
With “KLFFRA [SEQ ID NO: 7] (cyclo(K[dL]F[dF]R[dA]); SMILES CC(C)C[C@H]1NC(=O)[C@H](CCCCN)NC(=O)[C@@H](C)NC(=O)[C@H](CCCNC(=N)N)NC(=O)[C@@H](Cc2ccccc2)NC(=O)[C@H](Cc2ccccc2)NC1=O) [CyPPS7, cyclic peptide; AA1 Lys, AA2 D-Leu, AA3 Phe, AA4 D-Phe, AA5 Arg, AA6 D-Ala]” the “20S CP stimulatory activity (in words, SAR compared to CyPPS1)” value was “decreased activity”. With “TAFFRA [SEQ ID NO: 3] (cyclo(T[dA]F[dF]R[dA]); SMILES C[C@H]1NC(=O)[C@H](CCCNC(=N)N)NC(=O)[C@@H](Cc2ccccc2)NC(=O)[C@H](Cc2ccccc2)NC(=O)[C@@H](C)NC(=O)[C@H]([C@@H](C)O)NC1=O) [CyPPS3, cyclic peptide; AA1 Thr, AA2 D-Ala, AA3 Phe, AA4 D-Phe, AA5 Arg, AA6 D-Ala]” the “20S CP stimulatory activity (in words, SAR compared to CyPPS1)” value was “greatest loss of stimulatory activity”. For “TDFFRA [SEQ ID NO: 10] (cyclo(T[dD]F[dF]R[dA]); SMILES C[C@H]1NC(=O)[C@H](CCCNC(=N)N)NC(=O)[C@@H](Cc2ccccc2)NC(=O)[C@H](Cc2ccccc2)NC(=O)[C@@H](CC(=O)O)NC(=O)[C@H]([C@@H](C)O)NC1=O) [CyPPS10, cyclic peptide; AA1 Thr, AA2 D-Asp, AA3 Phe, AA4 D-Phe, AA5 Arg, AA6 D-Ala]”, the “20S CP stimulatory activity (in words, SAR compared to CyPPS1)” value was “decreased activity”. “TIFFRA [SEQ ID NO: 12] (cyclo(T[dI]F[dF]R[dA]); SMILES CC[C@@H](C)[C@H]1NC(=O)[C@H]([C@@H](C)O)NC(=O)[C@@H](C)NC(=O)[C@H](CCCNC(=N)N)NC(=O)[C@@H](Cc2ccccc2)NC(=O)[C@H](Cc2ccccc2)NC1=O) [CyPPS12, cyclic peptide; AA1 Thr, AA2 D-Ile, AA3 Phe, AA4 D-Phe, AA5 Arg, AA6 D-Ala]” was tested, and the “20S CP stimulatory activity (in words, SAR compared to CyPPS1)” value was “lack of activity”. With “TKFFRA [SEQ ID NO: 11] (cyclo(T[dK]F[dF]R[dA]); SMILES C[C@H]1NC(=O)[C@H](CCCNC(=N)N)NC(=O)[C@@H](Cc2ccccc2)NC(=O)[C@H](Cc2ccccc2)NC(=O)[C@@H](CCCCN)NC(=O)[C@H]([C@@H](C)O)NC1=O) [CyPPS11, cyclic peptide; AA1 Thr, AA2 D-Lys, AA3 Phe, AA4 D-Phe, AA5 Arg, AA6 D-Ala]” the “20S CP stimulatory activity (in words, SAR compared to CyPPS1)” value was “decreased activity”. With “TLFARA [SEQ ID NO: 5] (cyclo(T[dL]F[dA]R[dA]); SMILES CC(C)C[C@H]1NC(=O)[C@H]([C@@H](C)O)NC(=O)[C@@H](C)NC(=O)[C@H](CCCNC(=N)N)NC(=O)[C@@H](C)NC(=O)[C@H](Cc2ccccc2)NC1=O) [CyPPS5, cyclic peptide; AA1 Thr, AA2 D-Leu, AA3 Phe, AA4 D-Ala, AA5 Arg, AA6 D-Ala]” the “20S CP stimulatory activity (in words, SAR compared to CyPPS1)” value was “greatest loss of stimulatory activity”. With “TLFFAR [SEQ ID NO: 6] (cyclo(T[dL]F[dF]A[dR]); SMILES CC(C)C[C@H]1NC(=O)[C@H]([C@@H](C)O)NC(=O)[C@@H](CCCNC(=N)N)NC(=O)[C@H](C)NC(=O)[C@@H](Cc2ccccc2)NC(=O)[C@H](Cc2ccccc2)NC1=O) [CyPPS6, cyclic peptide; AA1 Thr, AA2 D-Leu, AA3 Phe, AA4 D-Phe, AA5 Ala, AA6 D-Arg]” the “20S CP stimulatory activity (in words, SAR compared to CyPPS1)” value was “stimulatory activity was preserved”. With “TLFFRS [SEQ ID NO: 22] (cyclo(T[dL]F[dF]R[dS]); SMILES CC(C)C[C@H]1NC(=O)[C@H]([C@@H](C)O)NC(=O)[C@@H](CO)NC(=O)[C@H](CCCNC(=N)N)NC(=O)[C@@H](Cc2ccccc2)NC(=O)[C@H](Cc2ccccc2)NC1=O) [CyPPS22, cyclic peptide; AA1 Thr, AA2 D-Leu, AA3 Phe, AA4 D-Phe, AA5 Arg, AA6 D-Ser]” the “20S CP stimulatory activity (in words, SAR compared to CyPPS1)” value was “maintained stimulatory activity”. For “TLFXRA [SEQ ID NO: 18] (cyclo(T[dL]F[dPhe(4-F)]R[dA]); SMILES CC(C)C[C@H]1NC(=O)[C@H]([C@@H](C)O)NC(=O)[C@@H](C)NC(=O)[C@H](CCCNC(=N)N)NC(=O)[C@@H](Cc2ccc(F)cc2)NC(=O)[C@H](Cc2ccccc2)NC1=O) [CyPPS18, cyclic peptide; AA1 Thr, AA2 D-Leu, AA3 Phe, AA4 D-Phe (4F), AA5 Arg, AA6 D-Ala]”, the “20S CP stimulatory activity (in words, SAR compared to CyPPS1)” value was “decreased activity”. With “TLFXRA [SEQ ID NO: 19] (cyclo(T[dL]F[dPhe(3-F)]R[dA]); SMILES CC(C)C[C@H]1NC(=O)[C@H]([C@@H](C)O)NC(=O)[C@@H](C)NC(=O)[C@H](CCCNC(=N)N)NC(=O)[C@@H](Cc2cccc(F)c2)NC(=O)[C@H](Cc2ccccc2)NC1=O) [CyPPS19, cyclic peptide; AA1 Thr, AA2 D-Leu, AA3 Phe, AA4 D-Phe (3F), AA5 Arg, AA6 D-Ala]” the “20S CP stimulatory activity (in words, SAR compared to CyPPS1)” value was “retained activity”. “TLFXRA [SEQ ID NO: 20] (cyclo(T[dL]F[dPhe(3,4-F2)]R[dA]); SMILES CC(C)C[C@H]1NC(=O)[C@H]([C@@H](C)O)NC(=O)[C@@H](C)NC(=O)[C@H](CCCNC(=N)N)NC(=O)[C@@H](Cc2ccc(F)c(F)c2)NC(=O)[C@H](Cc2ccccc2)NC1=O) [CyPPS20, cyclic peptide; AA1 Thr, AA2 D-Leu, AA3 Phe, AA4 D-Phe (3, 4F), AA5 Arg, AA6 D-Ala]” was tested, and the “20S CP stimulatory activity (in words, SAR compared to CyPPS1)” value was “retained activity”. For “TLFXRA [SEQ ID NO: 21] (cyclo(T[dL]F[dBpa]R[dA]); SMILES CC(C)C[C@H]1NC(=O)[C@H]([C@@H](C)O)NC(=O)[C@@H](C)NC(=O)[C@H](CCCNC(=N)N)NC(=O)[C@@H](Cc2ccc(C(=O)c3ccccc3)cc2)NC(=O)[C@H](Cc2ccccc2)NC1=O) [CyPPS21, cyclic peptide; AA1 Thr, AA2 D-Leu, AA3 Phe, AA4 D-BPA, AA5 Arg, AA6 D-Ala]”, the “20S CP stimulatory activity (in words, SAR compared to CyPPS1)” value was “stimulatory activity was maintained”. With “TLFYRA [SEQ ID NO: 17] (cyclo(T[dL]F[dY]R[dA]); SMILES CC(C)C[C@H]1NC(=O)[C@H]([C@@H](C)O)NC(=O)[C@@H](C)NC(=O)[C@H](CCCNC(=N)N)NC(=O)[C@@H](Cc2ccc(O)cc2)NC(=O)[C@H](Cc2ccccc2)NC1=O) [CyPPS17, cyclic peptide; AA1 Thr, AA2 D-Leu, AA3 Phe, AA4 D-Tyr, AA5 Arg, AA6 D-Ala]” the “20S CP stimulatory activity (in words, SAR compared to CyPPS1)” value was “decline in stimulatory activity”. In the case of “TLYFRA [SEQ ID NO: 16] (cyclo(T[dL]Y[dF]R[dA]); SMILES CC(C)C[C@H]1NC(=O)[C@H]([C@@H](C)O)NC(=O)[C@@H](C)NC(=O)[C@H](CCCNC(=N)N)NC(=O)[C@@H](Cc2ccccc2)NC(=O)[C@H](Cc2ccc(O)cc2)NC1=O) [CyPPS16, cyclic peptide; AA1 Thr, AA2 D-Leu, AA3 Tyr, AA4 D-Phe, AA5 Arg, AA6 D-Ala]”, the “20S CP stimulatory activity (in words, SAR compared to CyPPS1)” value is reported as “decline in stimulatory activity”. In the case of “VLFFRA [SEQ ID NO: 9] (cyclo(V[dL]F[dF]R[dA]); SMILES CC(C)C[C@H]1NC(=O)[C@H](C(C)C)NC(=O)[C@@H](C)NC(=O)[C@H](CCCNC(=N)N)NC(=O)[C@@H](Cc2ccccc2)NC(=O)[C@H](Cc2ccccc2)NC1=O) [CyPPS9, cyclic peptide; AA1 Val, AA2 D-Leu, AA3 Phe, AA4 D-Phe, AA5 Arg, AA6 D-Ala]”, the “20S CP stimulatory activity (in words, SAR compared to CyPPS1)” value is reported as “maintained stimulatory activity”.
